Measurements from publication doi:10.1101/568972v1 (biorxiv, 2019).

Columns and labels:
AceKMs = target: T1, AceKMs (Mycolicibacterium smegmatis, UniProt A0QQK1); experiment: HPLC of ATP/ADP, steady-state kinetics; type: biochemical; conditions: read-out: KM (substrate); ADP in excess; 10 mM MgCl2, pH 9.0, room temperature
T1 sequence (A0QQK1 1-376): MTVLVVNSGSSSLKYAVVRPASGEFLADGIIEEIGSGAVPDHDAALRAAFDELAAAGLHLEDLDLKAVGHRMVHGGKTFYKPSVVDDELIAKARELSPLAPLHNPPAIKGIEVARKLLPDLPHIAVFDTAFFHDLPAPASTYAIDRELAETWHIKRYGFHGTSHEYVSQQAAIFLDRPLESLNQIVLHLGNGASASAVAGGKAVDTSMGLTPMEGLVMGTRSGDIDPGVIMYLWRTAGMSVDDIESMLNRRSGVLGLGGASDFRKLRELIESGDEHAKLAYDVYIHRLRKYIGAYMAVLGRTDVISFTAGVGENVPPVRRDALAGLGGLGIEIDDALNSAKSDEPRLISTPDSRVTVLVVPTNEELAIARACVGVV

[1] = substrate: Nc1ncnc2c1ncn2[C@@H]1O[C@H](COP(=O)(O)OP(=O)(O)O)[C@@H](O)[C@H]1O; experiment: purified protein, by the assay type
purified protein [2] = substrate: O=C(CO)COP(=O)(O)O; experiment: purified protein; conditions: acceptor aldehyde not stated; 'DHAP' printed as table sub-heading
purified protein [3] = substrate: NC(=O)C1=CN([C@@H]2O[C@H](COP(=O)(O)OP(=O)(O)OC[C@H]3O[C@@H](n4cnc5c(N)ncnc54)[C@H](O)[C@@H]3O)[C@@H](O)[C@H]2O)C=CC1; experiment: purified protein; conditions: O2, 50 mM sodium phosphate pH 7, 1 mg/mL BSA, ambient temperature
[4] = substrate: OCC(O)CO; experiment: purified protein, by the assay type; conditions: pH 9.0
purified protein [5] = substrate: OCC(O)CO; experiment: purified protein; type: biochemical, Thermococcus kodakarensis; conditions: ATP in excess, 10 mM MgCl2, 50 mM NaHCO3 pH 9.0, room temperature
[6] = substrate: O=P(O)(O)OC[C@H](O)CO; experiment: purified protein, by the assay type
[7] = substrate: NC(=O)c1ccc[n+]([C@@H]2O[C@H](COP(=O)(O)OP(=O)(O)OC[C@H]3O[C@@H](n4cnc5c(N)ncnc54)[C@H](O)[C@@H]3O)[C@@H](O)[C@H]2O)c1; experiment: purified protein, by the assay type
purified protein [8] = substrate: O=P(O)(O)OC[C@H](O)CO; experiment: purified protein; conditions: NAD+ co-substrate, 50 mM sodium phosphate pH 9.0, ambient temperature

Molecule CC(=O)OP(=O)(O)O [acetyl phosphate] has a Km (AceKMs) of 390 ± 8 µM.

B1: GlpKTk-AceKMs-Est2Aa (Mycolicibacterium smegmatis MC2 155) (protein)
chain: T1 sequence (A0QQK1 1-376)
B1 showed a Km [1] of 398 ± 29 µM.

B2: FruASc (Staphylococcus carnosus subsp. carnosus TM300) (protein)
chain: NQEQFDKIKNGKGFIAALDQSGGSTPKALKDYGVEENEYSNDEEMFNLVHDMRTRIITSPAFNGEKILGAILFEQTMDREVEGKYTGSYLADKGIVPFLKVDKGLAEEADGVQLMKPIPDLDKLLDRANERGIFGTKMRSNILENNKEAIEKVVKQQFEVAKEIIAAGLVPIIEPEVNINAKDKEAIEANLAEAIKAELDNLKKDQYVMLKLTIPTKVNAYSELIEHPQVIRVVALSGGYSRDEANKILKQNDGLIASFSRALVSDLNAQQSDAEFNEKLQEAIDTIFDASVNKA
For B2, the Km (purified protein [2]) was 500 ± 80 µM and the kcat (purified protein [2]) was 16 ± 2 s⁻¹.

B3: NoxCa (Anaerocolumna aminovalerica) (protein)
chain: MKIVVIGCTHAGTAAVKTILKENPEAEITIFERNDNISFLSCGIALYVGGVVKDPAGLFYSNPEELSKMGANVKIKHNVKSIDTKSKKVIAEDMNTGEEIEVSYDKLVNTTGSWPIIPPIPGIESKNILLCKNYDQANVIIRQTKDAKKIVIVGGGYIGIELVEAFQKSGKQVTLIDGLDRILNKYLDKEFTDILEDDLKKNGINLALDQCVKSFKANENGEVTSVETTKGEYEADMVILCVGFRPNNELLKGKVDMLPNDAIIVDEYMRTSDPDIFAAGDSCAVHYNPNGNYAYIPLATNAVRMGMLIGKNISTPKVKYRGTQSTSGLNLFGYNIGSTGVTVSGAPQIGLNVRSVIVKDNYRPEFMPTNEEIIMQLVYEVGTNRIVGGQVMSKYDITQSANTLSLAIQNKMTIEDLAYVDFFFQPHFDRPWNYLNILGLAALEQEGL
For B3, the Km (purified protein [3]) was 258 ± 21 µM and the kcat (purified protein [3]) was 1,252 ± 182 s-1.

B4: GlpKTK-AceKMs-Est2Aa (Thermococcus kodakarensis KOD1) (protein)
chain: MEKFVLSLDEGTTSARAIIFDRESNIHGIGQYEFPQHYPRPGWVEHNPEEIWDAQLRAIKDAIQSARIEPNQIAAIGVTNQRETTLVWDKDGKPLYNAIVWQCRRTAEMVEEIKREYGTMIKEKTGLVPDAYFSASKLKWLLDNVPGLREKAEKGEVMFGTVDTFLIYRLTGEHVTDYSNASRTMLFNIKKLDWDDELLELFDIPESVLPEVRESSEVYGYTKKELLGAEIPVSGDAGDQQAALFGQAAFEAGMVKATYGTGSFILVNTDKMVLYSDNLLTTIAWGLNGRVSYALEGSIFVTGAAVQWLRDGIKIIKHASETEELATKLESNEGVYFVPAFVGLGAPYWDQFARGIIIGITRGTGREHLARATLEAIAYLTRDVVDEMEKLVQIKELRVDGGATANDFLMQFQADILNRKVIRPVVKETTALGAAYLAGLAVDYWADTREIAELWKAERIFEPKMDEKTRERLYKGWKEAVKRAMGWAKVVDSAKSN
B4 was tested, and the Km [4] was 16 ± 4 µM, the kcat [4] was 1400 ± 54 s⁻¹ and the kcat/Km [4] was 8.6e+07 M⁻¹ s⁻¹.

B5: GlpKTk (Thermococcus kodakarensis KOD1) (protein)
chain: B4 chain
B5 showed a Km (purified protein [5]) of 15 ± 2 µM and a kcat (purified protein [5]) of 940 ± 8 s⁻¹.

B6: G3PDEc-NOXCa-Est2Aa (Escherichia coli K-12) (protein)
chain: MNQRNASMTVIGAGSYGTALAITLARNGHEVVLWGHDPEHIATLERDRCNAAFLPDVPFPDTLHLESDLATALAASRNILVVVPSHVFGEVLRQIKPLMRPDARLVWATKGLEAETGRLLQDVAREALGDQIPLAVISGPTFAKELAAGLPTAISLASTDQTFADDLQQLLHCGKSFRVYSNPDFIGVQLGGAVKNVIAIGAGMSDGIGFGANARTALITRGLAEMSRLGAALGADPATFMGMAGLGDLVLTCTDNQSRNRRFGMMLGQGMDVQSAQEKIGQVVEGYRNTKEVRELAHRFGVEMPITEEIYQVLYCGKNAREAALTLLGRARKDERSSH
For B6, the Km [6] was 659 ± 47 µM, the kcat [6] was 7 ± 0.6 s⁻¹ and the kcat/Km [6] was 11000 M⁻¹ s⁻¹. It also gave a Km [7] of 164 ± 10 µM.

B7: G3PDEc (Escherichia coli K-12) (protein)
chain: B6 chain
B7 was tested, and the Km (purified protein [8]) was 59 ± 4 µM and the kcat (purified protein [8]) was 85 ± 11 s⁻¹.
